Source: US20250236657A1 (TOSOH, published 2025)

Tests used:
Assay in all cases: affinity HPLC, POROS AAVX resin, linear pH gradient 4.5 to 2.2, AAV2 peak top
[1] = molecular target: AAV2 T503S (adeno-associated virus serotype 2 (AAV2)) (UniProt P03135)
[2] = molecular target: AAV2 S264A (adeno-associated virus serotype 2 (AAV2)) (UniProt P03135)
[3] = molecular target: AAV2 D528A (adeno-associated virus serotype 2 (AAV2)) (UniProt P03135)
[4] = molecular target: AAV2 E499A (adeno-associated virus serotype 2 (AAV2)) (UniProt P03135)
[5] = molecular target: AAV2 H271A (adeno-associated virus serotype 2 (AAV2)) (UniProt P03135)
[6] = molecular target: AAV2 Q385A (adeno-associated virus serotype 2 (AAV2)) (UniProt P03135)
[7] = molecular target: AAV2 H271Q (adeno-associated virus serotype 2 (AAV2)) (UniProt P03135)
[8] = molecular target: AAV2 S267A (adeno-associated virus serotype 2 (AAV2)) (UniProt P03135)
[9] = molecular target: AAV2 Q263A (adeno-associated virus serotype 2 (AAV2)) (UniProt P03135)
[10] = molecular target: AAV2 N382A (adeno-associated virus serotype 2 (AAV2)) (UniProt P03135)

Substance: POROS Capture Select AAVX Affinity Resin (manufactured by Thermo Fisher Scientific)
- AAVX column elution time [1]: 48 min
- AAVX column elution time [2]: 48 min
- AAVX column elution time [3]: 47.8 min
- AAVX column elution time [4]: 47.8 min
- AAVX column elution time [5]: 48.2 min
- AAVX column elution time [6]: 47.9 min
- AAVX column elution time [7]: 48.1 min
- AAVX column elution time [8]: 48 min
- AAVX column elution time [9]: 48 min
- AAVX column elution time [10]: 47.9 min
